The values below come from publication doi:10.1101/2022.05.17.492379.

Data set [1] concerns the target T1, Esrrb (Mus musculus, UniProt Q61539 1-433).
T1 sequence: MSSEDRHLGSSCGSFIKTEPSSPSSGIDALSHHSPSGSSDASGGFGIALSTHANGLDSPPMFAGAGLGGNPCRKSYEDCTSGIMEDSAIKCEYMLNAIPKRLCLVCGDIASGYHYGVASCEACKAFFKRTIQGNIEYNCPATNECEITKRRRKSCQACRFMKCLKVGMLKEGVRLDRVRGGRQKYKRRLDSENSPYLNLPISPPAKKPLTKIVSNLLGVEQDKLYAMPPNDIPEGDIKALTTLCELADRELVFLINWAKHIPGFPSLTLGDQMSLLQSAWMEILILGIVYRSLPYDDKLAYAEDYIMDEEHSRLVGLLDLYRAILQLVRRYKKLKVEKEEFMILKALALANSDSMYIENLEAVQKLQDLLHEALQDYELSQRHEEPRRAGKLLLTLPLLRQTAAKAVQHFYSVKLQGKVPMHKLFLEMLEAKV
The experiment in a line: fluorescence polarization. For orientation: In fluorescence polarisation assays a small probe gives low polarisation when free and higher when bound to something large.

Data set [2] deals with Nr5a2 (Mus musculus, UniProt P45448 1-560). Briefly: fluorescence polarization.
Chain of Nr5a2 (P45448 whole entry): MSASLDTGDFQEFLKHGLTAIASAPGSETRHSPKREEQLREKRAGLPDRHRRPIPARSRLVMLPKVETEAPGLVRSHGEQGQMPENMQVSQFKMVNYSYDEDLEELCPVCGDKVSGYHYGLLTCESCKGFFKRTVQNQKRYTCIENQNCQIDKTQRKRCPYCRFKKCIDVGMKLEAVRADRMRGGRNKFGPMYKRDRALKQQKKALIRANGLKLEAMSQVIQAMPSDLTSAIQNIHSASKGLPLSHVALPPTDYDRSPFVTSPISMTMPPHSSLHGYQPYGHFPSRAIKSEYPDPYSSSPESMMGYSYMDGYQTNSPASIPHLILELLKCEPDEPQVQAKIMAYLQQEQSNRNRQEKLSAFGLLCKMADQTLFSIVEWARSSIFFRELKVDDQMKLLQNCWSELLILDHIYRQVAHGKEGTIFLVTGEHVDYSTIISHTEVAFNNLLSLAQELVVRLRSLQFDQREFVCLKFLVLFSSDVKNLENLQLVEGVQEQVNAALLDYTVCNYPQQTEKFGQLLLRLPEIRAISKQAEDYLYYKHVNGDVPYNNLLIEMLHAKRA

B1: Nr5a2 motif DNA (dsDNA)
DNA 1: GAGAGAGTCAAGGCCATGGCTCACT
DNA 2: AGTGAGCCATGGCCTTGACTCTCTC
As to B1, the Kd – broadly, the constant that tells how readily two partners part at equilibrium – in data set [1] was 626 ± 133 nM; in data set [2] it was 5.62 ± 1 nM.

B2: Esrrb motif DNA (dsDNA)
DNA 1: GAGAGAGTCAAGGTCATGGCTCACT
DNA 2: AGTGAGCCATGACCTTGACTCTCTC
Regarding B2, the Kd in data set [1] was 8.56 ± 0.69 nM; in data set [2], 6.49 ± 0.35 nM.
